From patent US20200017592A1 (Regeneron, published 2020)
Where a chain is given by its changes, count along the chain named. One block for each binder: values may come before it.

Assays:
[1] = target: T1, Macaca fascicularis IL-36R on cells (Macaca fascicularis, UniProt A0A2K5WSK9 20-558); test: cell-based or functional assay
T1 sequence: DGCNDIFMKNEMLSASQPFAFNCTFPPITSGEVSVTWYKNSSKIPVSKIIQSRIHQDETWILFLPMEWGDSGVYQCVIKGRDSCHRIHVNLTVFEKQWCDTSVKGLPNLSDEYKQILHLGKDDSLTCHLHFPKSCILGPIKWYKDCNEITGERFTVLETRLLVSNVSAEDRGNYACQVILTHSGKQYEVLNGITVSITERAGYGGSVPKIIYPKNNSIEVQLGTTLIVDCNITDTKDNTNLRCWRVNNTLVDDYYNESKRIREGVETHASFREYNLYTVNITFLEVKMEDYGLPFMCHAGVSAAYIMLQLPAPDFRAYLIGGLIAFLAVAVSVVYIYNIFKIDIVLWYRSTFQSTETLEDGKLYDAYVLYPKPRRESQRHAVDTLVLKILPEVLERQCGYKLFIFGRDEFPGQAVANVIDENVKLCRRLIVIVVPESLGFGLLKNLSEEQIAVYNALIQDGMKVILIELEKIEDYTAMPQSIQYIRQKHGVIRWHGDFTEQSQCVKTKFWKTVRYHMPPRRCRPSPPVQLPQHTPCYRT

[2] = target: T2, recombinant human IL-36R extracellular domain expressed with a C-terminal myc-myc-hexahistidine tag (human, UniProt Q9HB29 20-337); test: SPR (Biacore 4000), mAb captured on anti-human Fc, 37°C
T2 construct: also called hIL-36R-MMH; hIL-36R.mmH
Description: (§1) Equilibrium dissociation constants (KD values) for IL-36R binding to purified anti-IL-36R antibodies were determined using a real-time surface plasmon resonance biosensor using a Biacore 4000 instrument. The Biacore sensor surface was first derivatized by amine coupling with a monoclonal mouse anti-human Fc antibody (GE, # BR-1008-39) to capture anti-IL-36R monoclonal antibodies. All binding studies were performed in 0.01 M Hepes pH 7.4, 0.15 M NaCl, 3 mM EDTA, and 0.05% v/v Surfactant Tween-20 (HBS-ET running buffer) at 25° C. and 37° C. Different concentrations of IL-36R reagents, human IL-36R extracellular domain expressed with a C-terminal myc-myc-hexahistidine tag (hIL-36R-MMH), Macaca fascicularis IL-36R extracellular domain expressed with a C-terminal myc-myc-hexahistidine tag (mfIL-36R-MMH: mROR1 signal sequence (M1-A29). Macaca fascicularis IL36R_ecto domain (D20-A336).mycmycHis6), human IL-36R extracellular domain expressed with a C-terminal mouse IgG2a Fc tag (hIL-36R-mFc: mROR1 signal sequence (M1-A29)-human IL36R (D20-Y337)-mouse IgG2aFc (E98-K330)) or an in-line fusion protein of human IL-36R extracellular domain and IL1RAcP extracellular domain expressed with mouse IgG2a Fc tag (hIL-36R-Trap-mFc: mROR1 signal sequence (M1-A29)-human IL36R ecto domain (D20-Y337)-human IL1RacP ecto domain(S21-E359)-mouse IgG2aFc) in HBS-ET running buffer (ranging from 100 nM to 3.7 nM, 3-fold dilutions) were injected over the anti-IL-36R antibody captured surface for 4 minutes at a flow rate of 30 μL/minute and their dissociation in HBS-ET running buffer was monitored for 10 minutes. Kinetic association rate constant (kₐ) and dissociation rate constant (kd) were determined by fitting the real-time sensorgrams to a 1:1 binding model using Scrubber 2.0c curve fitting software. Binding dissociation equilibrium constants (KD) and dissociative half-lives (t_{1/2}) were calculated from the kinetic rate constants as: […]

[3] = target: T2, recombinant human IL-36R extracellular …; test: SPR (Biacore 4000), mAb captured on anti-human Fc, 25°C
Description: as §1

[4] = target: T3, full-length human IL-36R on cells (human, UniProt Q9HB29 20-575); test: cell-based or functional assay
T3 sequence (looked up): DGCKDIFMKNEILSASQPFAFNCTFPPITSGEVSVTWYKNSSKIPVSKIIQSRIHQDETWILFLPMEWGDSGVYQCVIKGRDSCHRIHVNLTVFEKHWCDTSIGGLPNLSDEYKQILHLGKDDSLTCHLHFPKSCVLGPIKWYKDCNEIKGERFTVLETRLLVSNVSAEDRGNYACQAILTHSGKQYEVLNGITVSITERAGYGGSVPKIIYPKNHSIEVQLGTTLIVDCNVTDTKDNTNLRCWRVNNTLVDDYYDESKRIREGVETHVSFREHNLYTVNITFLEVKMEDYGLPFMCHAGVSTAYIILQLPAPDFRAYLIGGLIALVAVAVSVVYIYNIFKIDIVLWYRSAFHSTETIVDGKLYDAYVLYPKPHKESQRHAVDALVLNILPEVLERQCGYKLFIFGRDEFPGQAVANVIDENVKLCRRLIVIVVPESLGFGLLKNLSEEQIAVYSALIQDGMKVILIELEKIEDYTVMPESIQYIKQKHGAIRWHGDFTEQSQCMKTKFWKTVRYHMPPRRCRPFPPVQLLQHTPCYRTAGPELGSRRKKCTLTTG

T2 sequence (Q9HB29 other isoform, or with tags, fused parts or gaps limits assumed): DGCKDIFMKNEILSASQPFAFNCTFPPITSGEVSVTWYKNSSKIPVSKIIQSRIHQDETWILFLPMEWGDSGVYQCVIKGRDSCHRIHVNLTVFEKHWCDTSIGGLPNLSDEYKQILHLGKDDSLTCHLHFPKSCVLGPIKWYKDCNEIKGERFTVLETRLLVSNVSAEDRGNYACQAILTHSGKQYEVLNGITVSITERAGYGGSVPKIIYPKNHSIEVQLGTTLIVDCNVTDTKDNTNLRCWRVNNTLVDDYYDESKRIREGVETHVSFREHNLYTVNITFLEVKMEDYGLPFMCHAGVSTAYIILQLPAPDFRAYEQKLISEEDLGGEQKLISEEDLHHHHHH

IC50 [M], NFκB-luciferase, 300 pM hIL-36γ [1]: 2e-10 M | IC50 [M], NFκB-luciferase, 500 pM hIL-36α [1]: 8.4e-11 M | IC50 [M], NFκB-luciferase, 600 pM hIL-36β [1]: 1.9e-10 M | Max Inhibition (%), NFκB-luciferase, 300 pM hIL-36γ [1]: 97% | Max Inhibition (%), NFκB-luciferase, 500 pM hIL-36α [1]: 97% | Max Inhibition (%), NFκB-luciferase, 600 pM hIL-36β [1]: 98% | 100 nM hIL-36R-MMH Bound (RU) [2]: 89 RU | Kd [2]: 29.5 nM | koff [2]: 0.00418 s⁻¹ | kon [2]: 142000 M⁻¹ s⁻¹ | t½ [2]: 2.8 min | 100 nM hIL-36R-MMH Bound (RU) [3]: 74 RU | Kd [3]: 10.2 nM | koff [3]: 0.00168 s⁻¹ | kon [3]: 165000 M⁻¹ s⁻¹ | t½ [3]: 7 min | IC50 [M], NFκB-luciferase, 10 pM hIL-36γ [4]: 1.4e-10 M | IC50 [M], NFκB-luciferase, 15 pM hIL-36β [4]: 1.3e-10 M | IC50 [M], NFκB-luciferase, 20 pM hIL-36α [4]: 1.3e-10 M | Max Inhibition (%), NFκB-luciferase, 10 pM hIL-36γ [4]: 99% | Max Inhibition (%), NFκB-luciferase, 15 pM hIL-36β [4]: 100% | Max Inhibition (%), NFκB-luciferase, 20 pM hIL-36α [4]: 100%
B1: H4H14699P2 (antibody, human IgG4 S228P, kappa, V domains shown)
VH: EVQLVESGGGLVQPGRSLRLSCAASGFTFDDYAIHWVRQAPGKGLEWVSVISWNSDIIGYADSVKGRFTVSRDNAKNSLYLQMNSLRTEDTALYYCAKGYNWNFFDYWGQGTLVTVSS
VL: EIVLTQSPATLSLSPGERATLSCRASQSVSSYLAWYQQKPGQAPRLLIYNAANRATDIPARFSGSGSGTDFTLTISSLEPEDFAVYYCQQRSNWPLTFGGGTKVEIKR
notes: Fully human anti-IL-36R antibody

IC50 [M], NFκB-luciferase, 300 pM hIL-36γ [1]: 1.8e-10 M | IC50 [M], NFκB-luciferase, 500 pM hIL-36α [1]: 1.2e-10 M | IC50 [M], NFκB-luciferase, 600 pM hIL-36β [1]: 1.8e-10 M | Max Inhibition (%), NFκB-luciferase, 300 pM hIL-36γ [1]: 99% | Max Inhibition (%), NFκB-luciferase, 500 pM hIL-36α [1]: 99% | Max Inhibition (%), NFκB-luciferase, 600 pM hIL-36β [1]: 99% | 100 nM hIL-36R-MMH Bound (RU) [2]: 89 RU | Kd [2]: 10.5 nM | koff [2]: 0.00184 s⁻¹ | kon [2]: 176000 M⁻¹ s⁻¹ | t½ [2]: 6 min | 100 nM hIL-36R-MMH Bound (RU) [3]: 67 RU | Kd [3]: 4.82 nM | koff [3]: 0.000579 s⁻¹ | kon [3]: 120000 M⁻¹ s⁻¹ | t½ [3]: 20 min | IC50 [M], NFκB-luciferase, 10 pM hIL-36γ [4]: 1.2e-10 M | IC50 [M], NFκB-luciferase, 15 pM hIL-36β [4]: 2e-10 M | IC50 [M], NFκB-luciferase, 20 pM hIL-36α [4]: 1.9e-10 M | Max Inhibition (%), NFκB-luciferase, 10 pM hIL-36γ [4]: 100% | Max Inhibition (%), NFκB-luciferase, 15 pM hIL-36β [4]: 100% | Max Inhibition (%), NFκB-luciferase, 20 pM hIL-36α [4]: 101%
B2: H4H14700P2 (antibody, human IgG4 S228P, kappa, V domains shown)
VH: B1 VH with I34M, A40T, I57V, G59A, A61S, V70I, R87G, Y100H
VL: B1 VL with A51V, S77G, Y87F

100 nM hIL-36R-MMH Bound (RU) [2]: 106 RU | Kd [2]: 4.25 nM | koff [2]: 0.000554 s⁻¹ | kon [2]: 131000 M⁻¹ s⁻¹ | t½ [2]: 21 min | 100 nM hIL-36R-MMH Bound (RU) [3]: 64 RU | Kd [3]: 4.09 nM | koff [3]: 0.000296 s⁻¹ | kon [3]: 72300 M⁻¹ s⁻¹ | t½ [3]: 39 min | IC50 [M], NFκB-luciferase, 10 pM hIL-36γ [4]: 1.3e-10 M | IC50 [M], NFκB-luciferase, 20 pM hIL-36α [4]: 1.4e-10 M | Max Inhibition (%), NFκB-luciferase, 10 pM hIL-36γ [4]: 24% | Max Inhibition (%), NFκB-luciferase, 20 pM hIL-36α [4]: 22%
B3: H4H14709P (antibody, human IgG4 S228P, kappa, V domains shown)
VH: EVQLVESGGGLVQPGGSLRLSCAASGFTFSDYAMSWVRQAPGKGLEWVSGISGNGGDTYYGDFVKGRFTISRDNSKNTLYLQMNSLRGEDTAAYFCVIDLDYWGQGTLVTVSS
VL: DIQMTQSPSTLSASEGDRVTITCRASQSISSWLAWYQQKPGKAPRLLIYKASILGDGVPSRFSGSGSGTEFTLTISSLQPDDFATYYCHQYNSYLWTFGQGTKVEIKR
